# Source: the supplement of paper PMC10126150
# ± gives the standard deviation of the averaged measurements.
# Test system: ATP
# Assay: switch fluorescence ratio, 500 uM ATP over buffer (Cy3 cluster intensity, sum of 5 cycles each) (fold (ratio)); higher = stronger signal-on switching upon ATP binding; sequences stand for … in TCGTCGGCAGCGTCAGATGTGTATAAGAGACAGTTTTTTTTTTTTTTTTTTTTTTTTT…TC
# Conditions: aptamer strand: ATP DNA aptamer (quencher-CACCTGGGGGAGTATTGCGGAGGAAGG + anchor), 100 nM annealed; ATP concentration: 500 uM
# Outline: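 Clusters with intensities outside 100-1000 RFU were excluded. The remaining Cy3-labelled switching-strand clusters on a modified Illumina MiSeq flow-cell had been annealed to 100 nM quencher-labelled ATP aptamer and imaged in selection buffer, then after 15 min with 500 uM ATP at 22 °C, for five cycles separated by NaOH stripping and re-annealing. The fluorescence ratio, averaged per switch-domain sequence, is each cluster's summed target-cycle Cy3 intensity over its summed buffer-cycle Cy3 intensity.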
# 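Also: ATP exposure 15 min at 22 °C before imaging.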
sequence,measurement,value
CAGGAATATA,switch fluorescence ratio,1.014 ± 0.0049
GGATGGGGTC,switch fluorescence ratio,0.975 ± 0.02
GAAATGGAGG,switch fluorescence ratio,0.995 ± 0.027
ACCCGGGGTC,switch fluorescence ratio,1 ± 0.053
GGTTTCCGT,switch fluorescence ratio,0.987 ± 0.038
CGAATACATA,switch fluorescence ratio,1.1 ± 0.011
GGGGTGTAGA,switch fluorescence ratio,1.02 ± 0.03
TTATGGGAAC,switch fluorescence ratio,0.97391 ± 0.00081
TGTCGTCTTC,switch fluorescence ratio,0.99 ± 0.016
TGGGGGTTCC,switch fluorescence ratio,1.01 ± 0.025
TTGGTAGCAA,switch fluorescence ratio,1.81 ± 0.41
TATATCGGAC,switch fluorescence ratio,1 ± 0.014
CTGCTCGTAA,switch fluorescence ratio,1.99 ± 0.18
TTTAAAGACC,switch fluorescence ratio,0.993 ± 0.022
AGAATTCTAG,switch fluorescence ratio,1.01 ± 0.022
TTAAGGCTAT,switch fluorescence ratio,1.009 ± 0.0065
ATAGTTATGG,switch fluorescence ratio,0.992 ± 0.011
ACTATGTAGG,switch fluorescence ratio,0.979 ± 0.013
CGCCCCGTCA,switch fluorescence ratio,0.954 ± 0.036
TTAAGGGCAA,switch fluorescence ratio,1.06 ± 0.013
ATGGATTTGC,switch fluorescence ratio,1.02 ± 0.081
TTTCGGAACA,switch fluorescence ratio,1.001 ± 0.0066
GACTTGTGGG,switch fluorescence ratio,1.02 ± 0.084
CGAGGTGAAG,switch fluorescence ratio,0.9922 ± 0.0049
TCAGAATGGG,switch fluorescence ratio,0.9833 ± 0.0047
GGCATCGAAG,switch fluorescence ratio,1 ± 0.027
TGAAAAGTTG,switch fluorescence ratio,0.987 ± 0.1
CGTTACTTAG,switch fluorescence ratio,1.02 ± 0.011
AATTGCGGGA,switch fluorescence ratio,0.9893 ± 0.0085
TTTTCTTGTT,switch fluorescence ratio,0.9949 ± 0.0062
ATCATAGGGG,switch fluorescence ratio,1 ± 0.016
GGGGGGGAAG,switch fluorescence ratio,1.01 ± 0.087
TCATAGGGTG,switch fluorescence ratio,1.03 ± 0.1
AGACGTCACT,switch fluorescence ratio,1.77 ± 0.12
TGAGGTGTTT,switch fluorescence ratio,0.992 ± 0.023
CAGGTCTTGA,switch fluorescence ratio,0.9888 ± 0.0014
CTCAGGCTTG,switch fluorescence ratio,0.997 ± 0.052
GTATTAATTT,switch fluorescence ratio,0.9833 ± 0.0046
AATGACGAGC,switch fluorescence ratio,1.04 ± 0.017
TTAGGTGCGT,switch fluorescence ratio,1.08 ± 0.028
CGGAGGGAAA,switch fluorescence ratio,0.963 ± 0.033
GAGTAAGAGC,switch fluorescence ratio,1.017 ± 0.0075
GTCTTCACGG,switch fluorescence ratio,0.999 ± 0.01
GGGAAATCGG,switch fluorescence ratio,0.986 ± 0.014
TGCATTCATG,switch fluorescence ratio,0.996 ± 0.029
TTAAATAAAA,switch fluorescence ratio,0.999 ± 0.028
AAGTGAGTAG,switch fluorescence ratio,1.004 ± 0.01
TATTAGAATA,switch fluorescence ratio,0.9814 ± 0.006
AACCAAAGGT,switch fluorescence ratio,1.014 ± 0.0017
GTAAGAAAGA,switch fluorescence ratio,1.02 ± 0.015
ATAATGGGGG,switch fluorescence ratio,0.977 ± 0.027
TTGGTGTTTA,switch fluorescence ratio,1.01 ± 0.022
TGTTATAATG,switch fluorescence ratio,1.03 ± 0.068
AGGTTAAGGA,switch fluorescence ratio,1.04 ± 0.087
TTACCTTTCT,switch fluorescence ratio,1.64 ± 0.64
GTGGGAATTT,switch fluorescence ratio,0.9823 ± 0.0081
TTGGGGGTCT,switch fluorescence ratio,0.968 ± 0.044
GTTTTATGAT,switch fluorescence ratio,0.967 ± 0.016
ATACTTACTT,switch fluorescence ratio,1.197 ± 0.011
CCGGGGATTC,switch fluorescence ratio,1.36 ± 0.2
GAGTGGGCTC,switch fluorescence ratio,0.9879 ± 0.0045
TCACAAATGA,switch fluorescence ratio,1.013 ± 0.0077
ACCAATTGGT,switch fluorescence ratio,1.02 ± 0.012
GGTAATAAGG,switch fluorescence ratio,1.05 ± 0.028
TAGGGCTTAA,switch fluorescence ratio,0.993 ± 0.042
TAAAAGGGCG,switch fluorescence ratio,1.03 ± 0.012
TTGGGAGGCG,switch fluorescence ratio,0.97 ± 0.039
TCAGGTGGAG,switch fluorescence ratio,1.03 ± 0.041
TCCAGGTGTG,switch fluorescence ratio,2.77 ± 0.42
AACCTGCTCG,switch fluorescence ratio,1.1 ± 0.02
CTAATGGAAA,switch fluorescence ratio,0.998 ± 0.026
TAGATGGGGT,switch fluorescence ratio,1.01 ± 0.031
TCACATTAAG,switch fluorescence ratio,1.01 ± 0.037
TGTTGATAGG,switch fluorescence ratio,0.982 ± 0.02
TAAGTGTTGG,switch fluorescence ratio,1 ± 0.018
AGAAGGGGG,switch fluorescence ratio,0.968 ± 0.022
AAAGTCTGGA,switch fluorescence ratio,1.028 ± 0.01
TTGCAAGGTT,switch fluorescence ratio,1.01 ± 0.017
AGGCGTGCTT,switch fluorescence ratio,0.987 ± 0.032
AAATTCTGCG,switch fluorescence ratio,0.941 ± 0.0098
TTGCCGGGTT,switch fluorescence ratio,1.17 ± 0.17
GGGGCTCTGT,switch fluorescence ratio,1 ± 0.012
AAGTGGGCCT,switch fluorescence ratio,0.981 ± 0.038
TCACATTTTA,switch fluorescence ratio,0.995 ± 0.04
TTCGCGAGGT,switch fluorescence ratio,2.67 ± 2.3
CAGGCGTGCA,switch fluorescence ratio,0.998 ± 0.018
AAGGGCTCTG,switch fluorescence ratio,1.01 ± 0.046
AATTATCTGC,switch fluorescence ratio,0.976 ± 0.015
GCTTCTGGTT,switch fluorescence ratio,0.988 ± 0.023
GGAACGGGTC,switch fluorescence ratio,1.02 ± 0.024
CGAGGCCTCG,switch fluorescence ratio,0.994 ± 0.038
TAATGTTTTT,switch fluorescence ratio,0.985 ± 0.039
TGGTATAACG,switch fluorescence ratio,0.964 ± 0.025
CGGGTCGGCC,switch fluorescence ratio,0.997 ± 0.025
TGGTGGGTAT,switch fluorescence ratio,0.999 ± 0.024
TGCAATAGGG,switch fluorescence ratio,1.35 ± 0.12
TCGGGTCAGT,switch fluorescence ratio,1 ± 0.034
TGAAGGATGG,switch fluorescence ratio,1 ± 0.027
TTTCGTGCCT,switch fluorescence ratio,1.065 ± 0.0026
GAGGTATGTT,switch fluorescence ratio,0.999 ± 0.02
TGCGGCGACG,switch fluorescence ratio,0.993 ± 0.015
GGATGGACTG,switch fluorescence ratio,0.937 ± 0.035
TATTTTGGCC,switch fluorescence ratio,1.02 ± 0.04
GTCGGGGGTG,switch fluorescence ratio,0.983 ± 0.041
GCCATAATAT,switch fluorescence ratio,1.01 ± 0.023
TTTGGACATC,switch fluorescence ratio,1.02 ± 0.027
CGTGATTGCT,switch fluorescence ratio,1.03 ± 0.074
GCTGTCATGA,switch fluorescence ratio,0.9853 ± 0.0074
TAGTCCGTAA,switch fluorescence ratio,2.06 ± 0.035
ATAGGTAGGG,switch fluorescence ratio,0.984 ± 0.0086
TCCGAGAGAG,switch fluorescence ratio,1.25 ± 0.053
AAGTCACATC,switch fluorescence ratio,1.22 ± 0.19
GAGGAATCGA,switch fluorescence ratio,1.04 ± 0.065
CACGCGTGGT,switch fluorescence ratio,0.996 ± 0.019
AGGGGGCGCC,switch fluorescence ratio,1.02 ± 0.016
GGGAGCCACG,switch fluorescence ratio,1.02 ± 0.036
ATGTTAAACG,switch fluorescence ratio,1.007 ± 0.0024
TGTGTTAGTT,switch fluorescence ratio,0.991 ± 0.024
TAAAGCAGGC,switch fluorescence ratio,1.11 ± 0.14
ATTTTGAGGT,switch fluorescence ratio,0.987 ± 0.018
TTTAATACTT,switch fluorescence ratio,1.03 ± 0.0052
TAGGTTATTA,switch fluorescence ratio,0.9988 ± 0.0097
TTTTGGAGCG,switch fluorescence ratio,1.05 ± 0.052
CATTGAGTGC,switch fluorescence ratio,1.034 ± 0.0017
ATTGTAGTCA,switch fluorescence ratio,0.973 ± 0.019
TCTTACAGTA,switch fluorescence ratio,1.09 ± 0.04
GATAAAAGCG,switch fluorescence ratio,0.994 ± 0.0015
TGGCACAGTG,switch fluorescence ratio,0.996 ± 0.019
GCTTTTGTTT,switch fluorescence ratio,1.04 ± 0.013
TTCGGGGTTT,switch fluorescence ratio,1.02 ± 0.06
TATGAACTGC,switch fluorescence ratio,1.04 ± 0.041
TTTAGGCAAT,switch fluorescence ratio,3.43 ± 2.7
GGACCGGCTA,switch fluorescence ratio,0.998 ± 0.02
GTAACTCGAA,switch fluorescence ratio,0.98231 ± 0.00092
GTGGAATATT,switch fluorescence ratio,1.04 ± 0.063
GCGGGACTGG,switch fluorescence ratio,1.04 ± 0.034
TTAGTGGCCC,switch fluorescence ratio,0.99 ± 0.016
ATAGTTGGC,switch fluorescence ratio,1.04 ± 0.07
CATAAGGCAA,switch fluorescence ratio,1.282 ± 0.0088
TGAGGGGCTT,switch fluorescence ratio,1 ± 0.073
AAAGAGTTCA,switch fluorescence ratio,1 ± 0.035
TCCACGTTGG,switch fluorescence ratio,1.01 ± 0.0067
TTTGTATGGT,switch fluorescence ratio,0.976 ± 0.011
CGGGTCGGGA,switch fluorescence ratio,0.995 ± 0.041
GGGGGAGTCG,switch fluorescence ratio,1.02 ± 0.048
AGATCATGAG,switch fluorescence ratio,0.9708 ± 0.0079
CATGGGGTGG,switch fluorescence ratio,0.9671 ± 0.0014
AGATTTTTTT,switch fluorescence ratio,0.996 ± 0.031
TTTTTTTTTT,switch fluorescence ratio,1.01 ± 0.083
CTAAGGAGGG,switch fluorescence ratio,0.989 ± 0.021
TTTGGGCGGT,switch fluorescence ratio,1.04 ± 0.12
TGGTAATAGG,switch fluorescence ratio,1.0108 ± 0.00095
CTGGTTAGGT,switch fluorescence ratio,1.01 ± 0.02
CATAATGAAG,switch fluorescence ratio,1.01 ± 0.014
CGATATGTCG,switch fluorescence ratio,1.41 ± 0.33
TAATTTGTTC,switch fluorescence ratio,1 ± 0.026
AACTCGTAGG,switch fluorescence ratio,0.995 ± 0.018
